biological target: HLA-A*02:01 (Homo sapiens, UniProt P04439, D140Y/D185E/D98H/E176V/E277Q/G131W/G231S/I119V/I121R/I166T/I218V/L300P/L318F/N151K/N90K/P208A/P217A/Q86G/Q94H/R138H/R169H/T345S); assay: MHC binding assay: UV-ligand exchange with β2m ELISA (peptide exchange yield); conditions: MHC class I binding score; binding to HLA-A*02:01 ranged by peptide exchange yield (UV-ligand exchange, β2m ELISA)
Outline: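 Binding capacity is expressed as the yield of UV-mediated ligand exchange, reflecting how well each peptide stabilizes peptide-receptive MHC. Stabilized complexes are read out by anti-β2m HRP ELISA (450 nm) after streptavidin capture, with refolded MLA-001 monomer standards for quantitation.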

Substance	Peptide Exchange
229 (FLLNLQNCHL; listed as Homo sapiens) [compound 229]	″++++″ (≥75% = ++++)
131 (LQALEVLKI; listed as Homo sapiens) [compound 131]	″+″ (≥10% = +)
277 (VMILKLPFL; listed as Homo sapiens) [compound 277]	″++″ (≥20% = ++)
67 (GLDDVTVEV; listed as Homo sapiens) [compound 67]	″++″ (≥20% = ++)
224 (AMEALVVEV; listed as Homo sapiens) [compound 224]	″+++″ (≥50 = +++)
98 (SLIKYFLFV; listed as Homo sapiens) [compound 98]	″+″ (≥10% = +)
80 (VLIEDELEEL; listed as Homo sapiens) [compound 80]	″++″ (≥20% = ++)
243 (ILPTLEKELFL; listed as Homo sapiens) [compound 243]	″+++″ (≥50 = +++)
84 (GVMDVNTAL; listed as Homo sapiens) [compound 84]	″++″ (≥20% = ++)
374 (VLSVITEEL; listed as Homo sapiens) [compound 374]	″+++″ (≥50 = +++)
288 (GLAESTGLLAV; listed as Homo sapiens) [compound 288]	″+++″ (≥50 = +++)
267 (TLLDWQDSL; listed as Homo sapiens) [compound 267]	″+++″ (≥50 = +++)
215 (VMQDIVYKL; listed as Homo sapiens) [compound 215]	″+++″ (≥50 = +++)
51 (FLVEAPHDWDL; listed as Homo sapiens) [compound 51]	″++++″ (≥75% = ++++)
284 (LLSAAEPVPA; listed as Homo sapiens) [compound 284]	″++″ (≥20% = ++)
321 (RLLEFELAQL; listed as Homo sapiens) [compound 321]	″+++″ (≥50 = +++)
178 (VLFFNVQEV; listed as Homo sapiens) [compound 178]	″+++″ (≥50 = +++)
190 (VVMGTVPRL; listed as Homo sapiens) [compound 190]	″+++″ (≥50 = +++)
330 (VLMWEIYSL; listed as Homo sapiens) [compound 330]	″+++″ (≥50 = +++)
47 (FLSDQPEPYL; listed as Homo sapiens) [compound 47]	″++″ (≥20% = ++)
10 (FVYGESVEL; listed as Homo sapiens) [compound 10]	″+++″ (≥50 = +++)
92 (ILEPLNPLL; listed as Homo sapiens) [compound 92]	″+++″ (≥50 = +++)
378 (YILGKFFAL; listed as Homo sapiens) [compound 378]	″+++″ (≥50 = +++)
174 (VLAELPIIVV; listed as Homo sapiens) [compound 174]	″+++″ (≥50 = +++)
348 (ALAKPPVVSV; listed as Homo sapiens) [compound 348]	″+++″ (≥50 = +++)
36 (FILTHVDQL; listed as Homo sapiens) [compound 36]	″++++″ (≥75% = ++++)

Substance	Peptide Exchange
150 (SLFDQPLSII; listed as Homo sapiens) [compound 150]	″+++″ (≥50 = +++)
376 (VLYNQRVEEI; listed as Homo sapiens) [compound 376]	″+++″ (≥50 = +++)
236 (GLLESGRHYL; listed as Homo sapiens) [compound 236]	″+++″ (≥50 = +++)
169 (TLLLGLTEV; listed as Homo sapiens) [compound 169]	″+++″ (≥50 = +++)
107 (ILYNLYDLL; listed as Homo sapiens) [compound 107]	″+++″ (≥50 = +++)
342 (SLITPLQAV; listed as Homo sapiens) [compound 342]	″+++″ (≥50 = +++)
358 (FLTDYLNDL; listed as Homo sapiens) [compound 358]	″+++″ (≥50 = +++)
134 (MLLEHGITLV; listed as Homo sapiens) [compound 134]	″++++″ (≥75% = ++++)
230 (FLQDSKVIFV; listed as Homo sapiens) [compound 230]	″+++″ (≥50 = +++)
365 (LISPLLLPV; listed as Homo sapiens) [compound 365]	″+++″ (≥50 = +++)
216 (WLAGDVPAA; listed as Homo sapiens) [compound 216]	″+++″ (≥50 = +++)
126 (LLPEGGITAI; listed as Homo sapiens) [compound 126]	″+++″ (≥50 = +++)
309 (ILYGTQFVL; listed as Homo sapiens) [compound 309]	″+++″ (≥50 = +++)
334 (YLLEEKIASL; listed as Homo sapiens) [compound 334]	″+++″ (≥50 = +++)
12 (ALGEDEITL; listed as Homo sapiens) [compound 12]	″+++″ (≥50 = +++)
189 (VMLEMTPEL; listed as Homo sapiens) [compound 189]	″+++″ (≥50 = +++)
180 (LLKDGPEIGL; listed as Homo sapiens) [compound 180]	″++″ (≥20% = ++)
42 (FLEEGGVVTV; listed as Homo sapiens) [compound 42]	″+++″ (≥50 = +++)
276 (VLNDGAPNV; listed as Homo sapiens) [compound 276]	″+++″ (≥50 = +++)
118 (RLLILENILL; listed as Homo sapiens) [compound 118]	″+++″ (≥50 = +++)
176 (VLAEQNIIPSA; listed as Homo sapiens) [compound 176]	″+++″ (≥50 = +++)
181 (VLLSIPFVSV; listed as Homo sapiens) [compound 181]	″+++″ (≥50 = +++)
356 (FLHDHQAEL; listed as Homo sapiens) [compound 356]	″++″ (≥20% = ++)
347 (YLGPVSPSL; listed as Homo sapiens) [compound 347]	″+++″ (≥50 = +++)
317 (NLLAHIWAL; listed as Homo sapiens) [compound 317]	″+++″ (≥50 = +++)
372 (SLFGPLPGPGPALV; listed as Homo sapiens) [compound 372]	″+++″ (≥50 = +++)

Further lines, results first:

Peptide Exchange	Substance
″+++″ (≥50 = +++)	363 (ITTEVVNELYV; listed as Homo sapiens) [compound 363]
″+++″ (≥50 = +++)	345 (YLIEPDVELQRI; listed as Homo sapiens) [compound 345]
″+++″ (≥50 = +++)	63 (SLAHVAGCEL; listed as Homo sapiens) [compound 63]
″+++″ (≥50 = +++)	61 (FVYFIVREV; listed as Homo sapiens) [compound 61]
″+++″ (≥50 = +++)	31 (ELMHGVAGV; listed as Homo sapiens) [compound 31]
″+++″ (≥50 = +++)	226 (AMNISVPQV; listed as Homo sapiens) [compound 226]
″+++″ (≥50 = +++)	19 (QVMEKLAAV; listed as Homo sapiens) [compound 19]
″+++″ (≥50 = +++)	259 (RLLDEQFAVL; listed as Homo sapiens) [compound 259]
″+++″ (≥50 = +++)	70 (FVPDTPVGV; listed as Homo sapiens) [compound 70]
″+++″ (≥50 = +++)	264 (TILDYINVV; listed as Homo sapiens) [compound 264]
″+++″ (≥50 = +++)	72 (GLLDAGKMYV; listed as Homo sapiens) [compound 72]
″+++″ (≥50 = +++)	305 (LLFPQIEGIKI; listed as Homo sapiens) [compound 305]
″+++″ (≥50 = +++)	377 (VVDGTCVAV; listed as Homo sapiens) [compound 377]
″+++″ (≥50 = +++)	293 (ALDIMIPMV; listed as Homo sapiens) [compound 293]
″+++″ (≥50 = +++)	94 (ILFPLRFTL; listed as Homo sapiens) [compound 94]
″+++″ (≥50 = +++)	225 (ILQERELLPV; listed as Homo sapiens) [compound 225]
″+″ (≥10% = +)	304 (LAIVPVNTL; listed as Homo sapiens) [compound 304]
″+++″ (≥50 = +++)	179 (VLLGLEMTL; listed as Homo sapiens) [compound 179]
″++++″ (≥75% = ++++)	340 (KLLEEICNL; listed as Homo sapiens) [compound 340]
″++″ (≥20% = ++)	3 (VIAELPPKV; listed as Homo sapiens) [compound 3]
″++++″ (≥75% = ++++)	199 (YLVELSSLL; listed as Homo sapiens) [compound 199]
″+++″ (≥50 = +++)	324 (SLYSALQQA; listed as Homo sapiens) [compound 324]
″+″ (≥10% = +)	130 (LLVLIPVYL; listed as Homo sapiens) [compound 130]
″++++″ (≥75% = ++++)	245 (KIMDYSLLLGV; listed as Homo sapiens) [compound 245]
″++++″ (≥75% = ++++)	382 (YLLPLLQRL; listed as Homo sapiens) [compound 382]
″+++″ (≥50 = +++)	311 (LLVDVEPKV; listed as Homo sapiens) [compound 311]
